Assay [1] concerns the target T1, BCL6-3C BTB domain (human BCL6 residues 5-129 with C8Q/C67R/C84N) (human), P41182. Put plainly: ITC in solution, 25° C; ITC in solution, not SPR. The note with it: remark: other sources report otherwise.
Assay [2] addresses T1, BCL6-3C BTB domain (human BCL6 residues …). The assay can be described thus: ITC in solution, 25° C. The note with it: remark: other sources report otherwise.

B1: SMRT^1414-1430 peptide (SMRT-BBD), no additional N-terminal residues (peptide)
peptide: LVATVKEAGRSIHEIPR
What is called Kd is the free concentration of one partner at which half of the binding sites on the other are occupied at equilibrium, for simple one-to-one binding. High values mean lower affinity, low ones higher affinity. B1 came in with a Kd in assay [1] of 11.4 µM. In assay [2], this molecule showed a -TΔS of 16.4, a stoichiometry (SMRT peptides per BCL6 chain) (SMRT peptides per BCL6 chain) of 1.11 and a ΔH of -23.2 kcal/mol.

Values taken from patent US20090018083A1.
